# What was measured:
# HLA-B*27:05 = assay: IEDB peptide-MHC binding, purified MHC/competitive/fluorescence; filed as Kd, often an IC50 or EC50 that approximates it; ≥ and ≤ were set here for values at or beyond the usual limits of such assays
# HLA-B*35:01 = assay: as above
# HLA-A*01:01 = assay: as above
# HLA-A*03:01 [1] = assay: as above
# HLA-A*26:01 = assay: as above
# HLA-B*15:01 = assay: as above
# HLA-A*11:01 = assay: IEDB peptide-MHC binding, purified MHC/direct/fluorescence; filed as Kd, often an IC50 or EC50 that approximates it; ≥ and ≤ were set here for values at or beyond the usual limits of such assays
# HLA-A*31:01 = assay: IEDB peptide-MHC binding, purified MHC/competitive/fluorescence; filed as Kd, often an IC50 or EC50 that approximates it; ≥ and ≤ were set here for values at or beyond the usual limits of such assays
# HLA-C*05:01 = assay: IEDB peptide-MHC binding, purified MHC/direct/fluorescence; filed as Kd, often an IC50 or EC50 that approximates it; ≥ and ≤ were set here for values at or beyond the usual limits of such assays; settings: source organism: Campylobacter jejuni subsp. jejuni NCTC 11168 = ATCC 700819
# HLA-A*69:01 [2] = assay: as above; settings: source organism: Bacillus anthracis
# HLA-C*03:03 = assay: as above; settings: source organism: Campylobacter jejuni subsp. jejuni NCTC 11168 = ATCC 700819
# HLA-A*03:01 [3] = assay: as above; settings: source organism: Escherichia coli O157:H7
# HLA-A*02:01 = assay: IEDB peptide-MHC binding, purified MHC/competitive/fluorescence; filed as Kd, often an IC50 or EC50 that approximates it; ≥ and ≤ were set here for values at or beyond the usual limits of such assays; settings: source organism: Vibrio cholerae 2740-80
# HLA-B*51:01 = assay: as above; settings: source organism: Vibrio cholerae 2740-80
# HLA-B*18:01 = assay: as above; settings: source organism: Vibrio cholerae 2740-80
# HLA-A*69:01 [4] = assay: as above; settings: source organism: Vibrio cholerae 2740-80
# HLA-A*02:11 = assay: as above; settings: source organism: Vibrio cholerae 2740-80
# HLA-A*02:12 = assay: as above; settings: source organism: Vibrio cholerae 2740-80
# HLA-A*29:02 = assay: as above; settings: source organism: Vibrio cholerae 2740-80
# HLA-A*24:03 = assay: as above; settings: source organism: Vibrio cholerae 2740-80
# HLA-B*39:01 = assay: as above; settings: source organism: Vibrio cholerae 2740-80
# HLA-B*27:03 = assay: as above; settings: source organism: Vibrio cholerae 2740-80
# HLA-B*46:01 = assay: as above; settings: source organism: Vibrio cholerae 2740-80
# HLA-B*15:17 = assay: as above; settings: source organism: Vibrio cholerae 2740-80
# HLA-B*57:01 = assay: as above; settings: source organism: Vibrio cholerae 2740-80
# HLA-A*68:02 = assay: as above; settings: source organism: Vibrio cholerae 2740-80
# [5] = source organism: Yersinia pestis Nepal516
# [6] = source organism: Salmonella enterica subsp. enterica serovar Typhi
# [7] = source organism: Powassan virus
# [8] = source organism: Vibrio cholerae 2740-80
sequence,measurement,setting,value
FRAQTKGKV,Kd,HLA-B*27:05; source organism: Escherichia coli 536,86.7 nM
FVMSCKLLY,Kd,HLA-B*35:01; [5],3.5 nM
same,Kd,HLA-A*01:01; [5],700 nM
same,Kd,HLA-A*03:01 [1]; [5],1850 nM
same,Kd,HLA-A*26:01; [5],327 nM
GKLKYRASY,Kd,HLA-B*27:05; source organism: Campylobacter jejuni subsp. jejuni NCTC 11168 = ATCC 700819,4410 nM
ISANANFSY,Kd,HLA-B*35:01; [6],24.7 nM
same,Kd,HLA-A*01:01; [6],28.8 nM
same,Kd,HLA-A*03:01 [1]; [6],≥ 20000 nM
same,Kd,HLA-B*15:01; [6],210 nM
KLKLKGTTY,Kd,HLA-A*11:01; [7],≥ 20000 nM
same,Kd,HLA-A*31:01; [7],2150 nM
same,Kd,HLA-A*03:01 [1]; [7],68.4 nM
KRIGASLAH,Kd,HLA-B*27:05; source organism: Mycobacterium tuberculosis H37Rv,171 nM
LLDEPTNHL,Kd,HLA-C*05:01,8 nM
same,Kd,HLA-A*69:01 [2],105 nM
same,Kd,HLA-C*03:03,2910 nM
MIYMGLWLK,Kd,HLA-A*03:01 [3],118 nM
same,Kd,HLA-A*11:01; source organism: Escherichia coli O157:H7,4.7 nM
same,Kd,HLA-A*31:01; source organism: Escherichia coli O157:H7 str. Sakai,139 nM
TRALVRTGM,Kd,HLA-B*27:05; source organism: Influenza A virus (A/swine/Italy/1509-6/97(H1N1)),8.3 nM
VMYNLWKMK,Kd,HLA-A*11:01; source organism: Yellow fever virus 17D,6.3 nM
same,Kd,HLA-A*31:01; source organism: Yellow fever virus,5.67 nM
VQPWLMVDV,Kd,HLA-A*02:01,≥ 20000 nM
same,Kd,HLA-B*51:01,≥ 20000 nM
same,Kd,HLA-B*18:01,≥ 20000 nM
same,Kd,HLA-A*69:01 [4],≥ 20000 nM
same,Kd,HLA-A*02:11,119 nM
same,Kd,HLA-A*03:01 [1]; [8],≥ 20000 nM
same,Kd,HLA-B*15:01; [8],≥ 20000 nM
same,Kd,HLA-A*02:12,1170 nM
same,Kd,HLA-A*29:02,≥ 20000 nM
same,Kd,HLA-A*24:03,≥ 20000 nM
same,Kd,HLA-B*39:01,≥ 20000 nM
same,Kd,HLA-B*27:03,≥ 20000 nM
same,Kd,HLA-B*46:01,≥ 20000 nM
same,Kd,HLA-B*15:17,≥ 20000 nM
same,Kd,HLA-A*26:01; [8],≥ 20000 nM
same,Kd,HLA-B*57:01,≥ 20000 nM
same,Kd,HLA-A*68:02,≥ 20000 nM

# From the Immune Epitope Database (IEDB)
